Test results taken from patent publication US20260103536A1.

Target: CD38 on cells (Raji, Daudi, REH, CD38-transfected HEK293) (human) (UniProt P28907)
Assay: flow cytometry on Raji cells; top asymptote fixed at about the maximum response of Darzalex

Q: How did the Adjusted* EC50 turn out when Darzalex® (CD38 control) (antibody) was run?
A: 1.27 nM
